Biological target: γ-tubulin ring complex (γ-TuRC) purified using GCP3-GFP-SII (human (endogenous in HEK293T)) (UniProt Q96CW5)
Experiment: single-molecule colocalisation by TIRF microscopy

% of CDK5RAP2-positive dots colocalizing with γ-TuRCs, with tubulin: 13%
% of CDK5RAP2-positive dots colocalizing with γ-TuRCs, without tubulin: 41%
Substance: mCherry-CDK5RAP2 (full-length, human) (from UniProt Q96SN8 1-1893) (natural protein)
